Patent WO2021028359A1 (dated 2021)

Target: HLA-A2 on HLA-A2 positive peripheral blood mononuclear cells (human)
Assay: cell-based or functional assay

B1: HLA-A2 CAR (anti-HLA-A2 chimeric antigen receptor: CD8 leader, scFv directed against HLA-A2, CD8 alpha linker and transmembrane domain, CD28 activation domain, … (receptor)
chain: SQVQLQQSGPELVKPGASVKMSCKASGYTFTSYHIQWVKQRPGQGLEWIGWIYPGDGSTQYNEKFKGKTTLTADKSSSTAYMLLSSLTSEDSAIYFCAREGTYYAMDYWGQGTSVTVSSGGGGSGGGGSGGGGSDVLMTQTPLSLPVSLGDQVSISCRSSQSIVHSNGNTYLEWYLQKPGQSPKLLIYKVSNRFSGVPDRFSGSGSGTDFTLKISRVEAEDLGVYYCFQGSHVPRTFGGGTKLEIKRTTTPAPRPPTPAPTIASQPLSLRPEACRPAAGGAVHTRGLDFACDIYIWAPLAGTCGVLLLSLVITLYCRSKRSRLLHSDYMNMTPRRPGPTRKHYQPYAPPRDFAAYRSRVKFSRSADAPAYQQGQNQLYNELNLGRREEYDVLDKRRGRDPEMGGKPRRKNPQEGLYNELQKDKMAEAYSEIGMKGERRRGKGHDGLYQGLSTATKDTYDALHMQALPPR
  CD69 cell surface expression on Tregs transduced with TX135 (PGK promoter), 24 h co-incubation, flow cytometry: 3.7 fold
  CD69 cell surface expression on Tregs transduced with pTX137 (EF1a promoter), 24 h co-incubation, flow cytometry: < 2 fold
  CD69 cell surface expression on Tregs transduced with pTX138 (EF1a promoter + WpreMut6), 24 h co-incubation, flow cytometry: < 2 fold
